The DeepSol protein solubility set

test: soluble on expression in E. coli; label from the status in PepcDB or PDB records

Sequence	soluble on expression in E. coli
MSSIEWNEKTFAKFAYLSDPRTKGELVAYVLTKANLKDNKYENTIVIENLKNNARRFIENATMPRISPDGKKIAFMRANEEKKVSEIWVADLETLSSKKILEAKNIRSLEWNEDSRKLLIVGFKRREDEDFIFEDDVPAWFDDLGFFDGEKTTFWIFDTESEEVIEEFEKPRFSSGIWHRDKIVVNVPHREIIPQYFKFWDIYIWEDGKEEKMFEKVSFYAVDSDGERILLYGKPEKKYMSEHNKLYIYDGKEVMGILDEVDRGVGQAKIKDGKVYFTLFEEGSVNLYIWDGEIKPIAKGRHWIMGFDVDEIVVYLKETATRLRELFTWDGEEKQLTDYNDPIFAKL	soluble
MGSDKIHHHHHHMDKFLYISMSGAKQNMNELALRANNLANANTDGFKSDMAQARSMQAFGEGLPTRVFAMVETPSANFRSGPIKSTGRDLDVAIKGDGWFAVQAQDGSEAYTRSGSLSFDSTGLLHNDRGNPVMGDAGPIVLPLPIEKVTISQDGIISVRPQGATTEVVEEVGRLKLVNPGNAQMMRGEDGLFRLVSGDPAPADPSVSVESGAVEGSNVNSVDEMVSLIDLQRQFELQVKMMKTAEENDRASSSLMRIS	not soluble
VAVVLDRQGKVQTVNGLFETELSYSQSEIAGRSLSEMSPPELSGDTHQKRALAAIRDGKHFSGTLRLVSKTGARVWLRTVVVPFKNETGGIEQITLYSSVLT	not soluble
MGSDKIHHHHHHMYQVPLEMICRHDRTAEVCRAAVEEDGWQLENVPEEMKTPELCRKALETEAGFGNDFHRGLVQHIPSPEVCMEVLKECRENNPEELYGVAVAIRPEVMNGEMADFLLPLDGRCISILPVHLQTPERVRVAVETSGMSAVGRGGVPKSLLTPDVYVRCAAHSRESLMMIPWAERSPEVCLMAKTLYPDIVKNHPEFVPESVRNQDSIYTLNSLMESLTGEKFSYRQMTDFYNGKPLDVKRMETPDGVQKDKAVKFDKETGKFSFSDIRQERKRGLKM	not soluble
MSLAELQMLLEEEIPSGKRALIESYQNLTRVADYCENNYIQATDKRKALEETKAYTTQSLASVAYQINALANNVLQLLDIQASQLRRMESSINHISQTVDIHKEKVARREIGILTTNKNTSRTHKIIAPANMERPVRYIRKPIDYTVLDDVGHGVKWLKAKHGNNQPARTGTLSRTNPPTQKEGHHHHHH	not soluble
MAHHHHHHMLKACLPRHLRVTPLLRVWAAEEDDANAPPTTFKNVKPGRLLRLWRQIRQRAWVAFTWDEEWTSPGSEGYLHQQRLEQVCFAPLSAYGMVPGSYCDPLLYNTKNTSPFRWHVANTSSDIVGHWYMEADEIFRIKDWQPKNPDDPTEMFPRPPQQILKWDETVDEHGNRTFRYKYRYDFMGPTGMWEAYPRYPFSHLYLNGQDHHGRAEGYGFKQGHLLRCSEEEEEVLRRIMEEEDKEWEMVKRTEVVQEPWSYPGKIRPQDFNGAVERAKARFREQIKQGKETDPSEDPDYDLVQAGEYVEPRDGPRAEWRHLWTSNRAKGEPLPYQVTFNDGITFEDNEEKPPVHPASHYEVKPKEAPYKKYEEQDTKEADEKQKKLKEQWEKSFEESISRHEKTVGDGKTSGGNSDSRSSGSAADSGAKEPPK	not soluble
MQVSLPREDTVYIGGALWGPATTWNLYAPQSTWGTDQFMYLPAFQYDLGRDAWIPVIAERYEFVDDKTLRIYIRPEARWSDGVPITADDFVYALELTKELGIGPGGGWDTYIEYVKAVDTKVVEFKAKEENLNYFQFLSYSLGAQPMPKHVYERIRAQMNIKDWINDKPEEQVVSGPYKLYYYDPNIVVYQRVDDWWGKDIFGLPRPKYLAHVIYKDNPSASLAFERGDIDWNGLFIPSVWELWEKKGLPVGTWYKKEPYFIPDGVGFVYVNNTKPGLSDPAVRKAIAYAIPYNEMLKKAYFGYGSQAHPSMVIDLFEPYKQYIDYELAKKTFGTEDGRIPFDLDMANKILDEAGYKKGPDGVRVGPDGTKLGPYTISVPYGWTDWMMMCEMIAKNLRSIGIDVKTEFPDFSVWADRMTKGTFDLIISWSVGPSFDHPFNIYRFVLDKRLSKPVGEVTWAGDWERYDNDEVVELLDKAVSTLDPEVRKQAYFRIQQIIYRDMPSIPAFYTAHWYEYSTKYWINWPSEDNPAWFRPSPWHADAWPTLFIISKKSDPQPVPSWLGTVDEGGIEIPTAKIFEDLQKATMHHHHHH	soluble
MSLRLERLNYNKIKIFLTLDDLTDRGLTKEDLWKDSFKVHQLFKDMMNEANTELGFEANGPIAVEVYSLQAQGMVVIVTKNQDADSEDDEYDDDYIEMQVKLDESADIIYQFHSFEDIIQLSESLQRIGITGGTVYHYDGQYFLSLEDLGSHTAEGVVAVLAEYGNPTTLTIYRLQEYGKLIMDGNAVETIQTHFSEGHHHHHH	soluble
MGSDKIHHHHHHVPVADRVSKVDVIAFRLAAHHLDERLGEGGLLDAAGRCGIQNSPPGSALLALHARVRNLTQQQVAGAVAKEKSLLQTWCMRGSPFYFPALDAPVFTTGVLPPTEEAMRHLVVGVEPALDKLGISLTEAVELADAEIHEVLSGRRLAINELGAEIATRIARRLPKRQRDIWEDNGPYAPGQPLGEGVVHFCVRILTLQRVLCLAPRVGNQSPFVLVDEWLGDPIPDIDPELARAELLRRYLRCYGPSTRGDFASWAGVHAGDTGPWWNLVGTELTPVEFGGTSWILTEDLDALRSAPAPTGVRLLPPGDPYTQMRDRETIVDKKYHREVWRMAGGPGTVLAGGKITGTWRSRKSGRKLALTITTFGSLPDRDRTSLQGEAGQVAALRGASSVDVAFGTY	not soluble
MRKIVLASVVTSLVGCSMGHRDPVEAKQALNQAINETNSRQIDQLPPSVEADLMPDMDTLTASEPKTLQRFRIQAEDVEAKAFFASLVQGTEYSAAIHPAVTGRITLNLTDVTLDEALGVVRDLYGFEVVKEGKVIQVYPAGLRTVTIPVDYLQFKRTGRSLTSITTGTITNTDTNNSNSSSSSSSSISSNSSSDGSSSNSNSNRSDARGGTEIETTNESDFWPLLEKAVAQLLGGSGGQTVIVNPQAGVLTLRAYPDEIRQVNEFLGISQQRMHRQVILEAKILEVTLSDGYQQGINWSKAFSSNGANYKIGSGSITQDSNGNPITSVLPGLDAIGNLLGGQSNVVISSGSFDAVISFMATQGDLNVLSSPRVTASNNQKAVIKVGTDEYYVTDLSSVVGTGDNAQASPDITLTPFFSGISLDVTPQIDDQGNVLLHVHPAVIEVEQQTKKILYRSEEIELPLARSSIRESDSVIRAKDGDVVVIGGLMKSNTVDQVSKVPFLGDVPALGHLFRNTTKLTQKTELVILLKPTVVGVNTWQKELERSRSLLQEWFPDSQ	not soluble
MRESHNVLPPVAPVRPITRTHHGIDFVDNYEWLRDKENPETIQYLEAENAFVEQQTAHLSQLKDNIYHEIKSRVKETDMSVPQRAGDFWYYGRSVEGKSYGYSCRIPVSEGADAWVPPTIPEREPVAGEQIILDANELAEGHEFFALGASTVTTSGRYLAYSVDTEGDERFTLRVKDLATGEHLADEIPDVFYGATWAGEEYLFYQRVDAAWRPDSVWRHKIGTDPATDVQVFHEADERFNTGVGATRSERFLMIESASKITSEIWVLDLDNPTGDFRCVLPRQAGVEYDIDHAVVAGRDTWIVTHNAAGPNFEVGWTPVTDEEISLDSLEVLVPHRDEVRIEGVDTYRDHIVLAYRSGAIGRAAVMQLNADGFGTFEEITFDEELYTIGVGGHPEWDTPVVRMVYVSFTQPSQVFDYWIADGRRTLLKQQEVVGGYNADDYTASRLWVEAHDGVRIPVSLIHRSDLDLSKPNPTLLYGYGSYESSIDPGFSIARLSLMDRGMVFAIAHVRGGGEMGRGWYDTGKTVTKKNTFTDFIAVADHLIEHGVTTSEMLVAEGGSAGGMLMGAVANMAGDRFKAIEAVVPFVDPLTSMLMPELPLTVTEWDEWGDPLHDVDVYNYMASYAPYENIEAKAYPNILAVTSLNDTRVLYVEPAKWIAQLRATATGGQFLLKTEMSAGHGGVSGRYEKWKQTAFEYAWLCHQATGKES	not soluble
MSLLLIKNGKIITMTGKNYDKGCVLIDNGKIVDVNENIKENKYMKVIDASNFTVIPGIIDAHCHIGIDEQDIGKVGLDINEVSNPVTPNLRAIDAINPMDSAFNDAVMGGITGVMTGPGSANVIGGQFVFMKTYGKCIDDMVVLEPAAVKAALGENPKRVYGGKGKAPVTRMAIAALLREALTEAENYKNKKEALKAKGERIEKNLKLEALIPVIEGNIPLKVHAHRADDILTAIRIAKEFKINITLDHCTEGHLIPEKVKESGYPVLVGPSLTSRSKSEVSNKTFKTPGVLANMGIKTAIITDHPVIPIQYLPICAGLSCREGMKVEDALYAITLNAAEICGVASRLGSIEKGKDADIAIFDGNPMEVFTKTIYTIIDGNIVYKHECYEGHHHHHH	soluble
GSHMEEKLAVSLQEALQEGDTRALREVLEEIHPQDLLALWDELKGEHRYVVLTLLPKAKAAEVLSHLSPEEQAEYLKTLPPWRLREILEELSLDDLADALQAVRKEDPAYFQRLKDLLDPRTRAEVEALARYEEDEAGGLMTPEYVAVREGMTVEEVLRFLRRAAPDAETIYYIYVVDEKGRLKGVLSLRDLIVADPRTRVAEIMNPKVVYVRTDTDQEEVARLMADYDFTVLPVVDEEGRLVGIVTVDDVLDVLEAEATEDIHKLGAVDVPDLVYSE	soluble
MKSFCDNDDNNHSNTTNLLGFSLSSNMMKMGGRGGREAIYSSSTSSAATSSSSVPPQLVVGDNTSNFGVCYGSNPNGGIYSHMSVMPLRSDGSLCLMEALNRSSHSNHHQDSSPKVEDFFGTHHNNTSHKEAMDLSLDSLFYNTTHEPNTTTNFQEFFSFPQTRNHEEETRNYGNDPSLTHGGSFNVGVYGEFQQSLSLSMSPGSQSSCITGSHHHQQNQNQNHQSQNHQQISEALVETSVGFETTTMAAAKKKRGQEDVVVVGQKQIVHRKSIDTFGQRTSQYRGVTRHRWTGRYEAHLWDNSFKKEGHSRKGRQVYLGGYDMEEKAARAYDLAALKYWGPSTHTNFSAENYQKEIEDMKNMTRQEYVAHLRRKSSGFSRGASIYRGVTRHHQHGRWQARIGRVAGNKDLYLGTFGTQEEAAEAYDVAAIKFRGTNAVTNFDITRYDVDRIMSSNTLLSGELARRNNNSIVVRNTEDQTALNAVVEGGSNKEVSTPERLLSFPAIFALPQVNQKMFGSNMGGNMSPWTSNPNAELKTVALTLPQMPVFAAWADS	soluble
MVEMDGRKFLKLLKEEVHKAVVGKDDVIELLAIALLAEGHVMIEGVPGVAKTTIAKSFAQVLGLKFSRIQLTPDLLPADILGTVYYDQSDGLWKIKKGPIFANVVLADEINRAQPKTQSALLEAMQERQVTIEGRTFPLEKPFMVIATKNPIEFEGVYNLPEAQVDRFMLNIKIGYPTREEEVEMLRKKDRGELGEVGRIFSREQIVRMINEVKRVKTSEEVLHYLYEIVNETRKDERLIVGASPRASEHLLYASKAKAFLEGRDYVIPDDVKFLAVPVLAHRLLIKAEHEIEGIKGEDIVREILERVEVPI	soluble
MEQCNERPKVSVIIPVYNTCNYVQEALESICQQTLEELEIIVIDDGSTDCSRAIVEEIAIKDTRIQVYKQSNQGLSITRNQGLKFSTGEYIYFMDSDDFLEPDALELCYRKCTKEALDFVFFDAETFTIEPNIPESSFDYQRTLDLPEKICSGIDMLKTQLKTYKFKSSVCLNLFHREFICEERLSFYPGILHEDQLFMIQAYLHASKTGFIRRSFFHRRIRTNSIMTKKFTWKNMEGYLTVTNELLRELPIYPKTYHHTIFFFLRQMLDAAVWQAHTLSLPQRIKLFSLCLKYYRPYVTMRTLMVLLLKTSIHPRQ	soluble
